Source: IntAct's records for PubMed 8137824

B1: Mating-type protein ALPHA2 (Saccharomyces cerevisiae), P0CY08 (parent)
chain: MNKIPIKDLLNPQITDEFKSSILDINKKLFSICCNLPKLPESVTTEEEVELRDILGFLSRANKNRKISDEEKKLLQTTSQLTTTITVLLKEMRSIENDRSNYQLTQKNKSADGLVFNVVTQDMINKSTKPYRGHRFTKENVRILESWFAKNIENPYLDTKGLENLMKNTSLSRIQIKNWVSNRRRKEKTITIAPELADLLSGEPLAKKKE
partner: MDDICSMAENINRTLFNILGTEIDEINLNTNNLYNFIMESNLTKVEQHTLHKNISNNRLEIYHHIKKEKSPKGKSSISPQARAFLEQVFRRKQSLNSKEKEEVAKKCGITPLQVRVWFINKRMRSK

Variants of: B1
Conditions: with mata1_yeasx MATA1, P0CY10

Row | Variant | effect of a mutation on the interaction
1 | I67A;L74A;L81A;L88A | disrupting interaction strength
